In publication PMC5264506, “An antibody that prevents serpin polymerisation acts by inducing a novel allosteric behaviour” (Biochemical Journal, 2016):
Values belong to the binder of their own block, whether it stands above or below them.

What was measured:
[1] = target: α1-antitrypsin, plasma-derived wild-type (M) (UniProt P01009); assay: progress curves of intrinsic protein fluorescence (peptide incorporation) + native gel or EMSA; as a5, in the presence of mAb4B12
[2] = target: the molecule itself; assay: native gel or EMSA; endpoint polymerisation: 0.1 mg/ml heated for 4 h (55°C, or 45-63°C) without antibody during heating; bis-Tris non-denaturing PAGE, Coomassie; polymerisation read as loss of the monomer band
[3] = target: T1, α1-antitrypsin, plasma-derived wild-type (M) (UniProt P01009 25-418); assay: progress curves of intrinsic protein fluorescence (peptide incorporation) + native gel or EMSA; as a5, in the presence of mAb4B12; conditions: both partners purified
T1 construct: alpha1-antitrypsin, wild-type 'M' allele, plasma-derived; also called α1-AT; α1-ATWT; source: plasma-derived

fold increase in the rate of peptide incorporation with mAb4B12 against the non-antibody-bound control [1]: 1.8 fold
B1: 4-mer peptide Ac-FLAA-NH2 (peptide)
peptide: Ac-FLAA-NH2

B2: α1-AT_(79-306), disulphide variant Gly79Cys/Leu306Cys (natural protein, UniProt P01009 25-418, looked up)
chain: EDPQGDAAQKTDTSHHDQDHPTFNKITPNLAEFAFSLYRQLAHQSNSTNIFFSPVSIATAFAMLSLGTKADTHDEILECLNFNLTEIPEAQIHEGFQELLRTLNQPDSQLQLTTGNGLFLSEGLKLVDKFLEDVKKLYHSEAFTVNFGDTEEAKKQINDYVEKGTQGKIVDLVKELDRDTVFALVNYIFFKGKWERPFEVKDTEEEDFHVDQVTTVKVPMMKRLGMFNIQHSKKLSSWVLLMKYLGNATAIFFLPDEGKLQHLENELTHDIITKFLENEDRRSASLHLPKLSITGTYDLKSVLGQCGITKVFSNGADLSGVTEEAPLKLSKAVHKAVLTIDEKGTEAAGAMFLEAIPMSIPPEVKFNKPFVFLMIEQNTKSPLFMGKVVNPTQK
modifications: disulphide 79-306 present in ~90% of molecules
notes: alpha1-antitrypsin, 'M' allele, engineered disulphide between helix C and the C-terminus of helix I, on the Cys232Ser background; also called 79-306 double mutant; source: E. coli XL-1 blue, pQE-30-based plasmid, purified
binding result [2]: binds

fold increase in the rate of peptide incorporation with mAb4B12 against the non-antibody-bound control [3]: 2.5 fold
B3: 11-mer RCL peptide Ac-SEAAASTAVVI-NH2 (peptide)
peptide: Ac-SEAAASTAVVI-NH2
notes: model peptide corresponding with the reactive centre loop (RCL) of anti-thrombin; source: synthetic peptide
